Molecular target: TRF2BH (basic region + TRFH) (UniProt Q15554 45-289)
Experiment: EMSA

Sequence of TRF2BH (basic region + TRFH) (Q15554 45-289): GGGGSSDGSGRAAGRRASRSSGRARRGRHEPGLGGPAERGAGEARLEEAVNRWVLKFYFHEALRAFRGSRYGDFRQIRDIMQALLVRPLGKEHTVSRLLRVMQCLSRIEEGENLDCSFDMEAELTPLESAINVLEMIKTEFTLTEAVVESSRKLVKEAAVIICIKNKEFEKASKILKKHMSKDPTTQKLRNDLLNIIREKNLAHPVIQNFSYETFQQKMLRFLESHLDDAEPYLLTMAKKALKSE

## TTAGGGTTAGGGTTAGGGTTAGGGTTAGGGTTAGGGTTAGGG (structured_DNA) [T7]
  binding result: binds
